Measurements from patent US11572572B2, “A138T mutation-containing plant EPSPS mutant, and encoding gene and application thereof” (GEVOTO LLC, priority 2017, dated 2023).
Substitutions are numbered along the chain they refer to.

B1: R2: Oryza sativa EPSPS mutant having only the G111(96)A mutation (SEQ ID NO: 2), encoding gene SEQ ID NO: 16 (protein)
chain: MASNAAAAAAKAEEIVLQPIREISGAVQLPGSKSLSNRILLLSALSEGTTVVDNLLNSEDVHYMLEALKALGLSVEADKVAKRAVVVGCGGKFPVEKDAKEEVQLFLGNAATAMRPLTAAVTAAGGNATYVLDGVPRMRERPIGDLVVGLKQLGADVDCFLGTECPPVRVKGIGGLPGGKVKLSGSISSQYLSALLMAAPLALGDVEIEIIDKLISIPYVEMTLRLMERFGVKAEHSDSWDRFYIKGGQKYKSPGNAYVEGDASSASYFLAGAAITGGTVTVQGCGTTSLQGDVKFAEVLEMMGAKVTWTDTSVTVTGPPREPYGKKHLKAVDVNMNKMPDVAMTLAVVALFADGPTAIRDVASWRVKETERMVAIRTELTKLGASVEEGPDYCIITPPEKLNITAIDTYDDHRMAMAFSLAACADVPVTIRDPGCTRKTFPNYFDVLSTFVRN
modifications: Oryza sativa EPSPS mutant with only G111(96)A mutation
B2: R3: Oryza sativa EPSPS mutant II with G111(96)A and A155(138)T (SEQ ID NO: 7), encoding gene SEQ ID NO: 17 (protein)
chain: B1 chain with A155T
modifications: Oryza sativa EPSPS mutant with mutations G111(96)A and A155(138)T

Assays:
[1] = system: transgenic rice seedlings; test: Glyphosate resistance of EPSPS mutants in transgenic rice sprayed with glyphosate (Example 8); assay type: in vivo, rice (Nipponbare)
Description: The glyphosate resistance of the EPSPS mutants of the above examples in transgenic rice was detected by the following method.
Plasmids of monoclonal resistant strain comprising pADV5-EPSPS of Examples 1-4 (containing the EPSPS mutant genes) were extracted in accordance with a conventional method. They were subjected to double enzymatic digestion with Pacl and BstEII to recover small fragments, and then the small fragments were ligated, using T4 DNA ligase, to a pGVP1 vector subjected to double enzymatic digestion in the same manner, to obtain a pGVP1-EPSPS vector having a structure as shown in FIG. 8.
The pGVP1-EPSPS vector was transformed into EHA105 (Agrobacterium tumefaciens) competent cells, and single clones were picked out for colony PCR detection to obtain positive strains. Then, the positive strains were inoculated into and propagated in 1 mL of a YEP medium containing 50 μg·mL^−1 kanamycin and 50 μg·mL^−1 rifampicin, and stored at −80° C. or used in subsequent experiments.
400 ul of a strain containing the target gene vector stored at −80° C. was added to a culture dish with a solid medium containing YEP+50 μg/mL rifampicin+50 μg/mL kanamycin and cultured in the dark at 28° C. for 24 hours, and then the bacterium was added to an infection medium and adjusted to OD=0.2 as an infection solution.
Disinfection and Pre-culture: seeds of mature rice (Nipponbare) were manually dehulled. Full seeds with no bacterial plaques were selected and disinfected in accordance with the following steps: the seeds were placed in a 50 ml sterile centrifuge tube and disinfected with the added 70% ethanol in water for 30 seconds, ethanol solution was poured out, and the seeds were washed once with sterile water; 10 to 20 ml of 2.6% sodium hypochlorite solution was added to soak and disinfect the seeds for 20 minutes. The sodium hypochlorite solution was poured out, and the seeds were soaked and washed with sterile water for 6 or 7 times, for 3 minutes each time.
Induction and Subculture: the seeds were placed on and blotted with sterile filter paper, and the mature embryos were placed in an induction medium, with 12 embryos per dish. After the operation was completed, the culture dishes were sealed with parafilm and underwent culturing in the dark at 30° C. for 21 to 28 days. Callus tissue was transferred to a fresh medium and continued to be cultured for about 7 to 14 days. Spherical callus tissue with a dimension of 1 to 2 mm was taken as an infection receptor.
The callus tissue was placed into a centrifuge tube or culture cup, infected in the prepared Agrobacterium suspension added thereto for 10 minutes, and shaken several times during the period; the bacterial solution was poured out, the callus tissue was taken out and placed on sterile filter paper for absorbing the bacterial solution from its surface (for about 30 minutes); the callus tissue was placed on sterile filter paper in culture dishes and cultured in the dark at 25° C. for 2 or 3 days.
Recovery Culture: the co-cultured callus tissue was inoculated on a recovery medium and cultured in the dark at 30° C. for 5 to 7 days.
Primary Screening: the callus was transferred to screening medium 1 (51) and cultured in the dark at 30° C. for 14 days.
Secondary Screening: the callus was then transferred to screening medium 2 (S2) and cultured in the dark at 30° C. for 14 days.
Primary Differentiation: the screened resistant callus tissue was transferred to a differentiation medium and cultured for about 21 days at 30° C. under exposure to light for 19 hours.
Secondary Differentiation: new young shoots were selected and moved to a fresh differentiation medium and continued to be cultured for about 21 days.
When the new seedlings grew to about 2 cm, they were moved to a rooting medium and cultured for 3 to 4 weeks at 30° C. under exposure to light (for 16/8 h). […]

[2] = system: double-knockout Escherichia coli strain (EDCE); test: Growth of double-knockout E. coli (EDCE) transformed with Oryza sativa EPSPS genes in glyphosate media (Example 5); assay type: cell-based; settings: for growth status of transformed Escherichia coli: Example 5, FIG. 1
Description: An Escherichia coli strain transformed with the Oryza sativa EPSPS mutant I-encoding gene according to Example 1 was used as Experimental Group 1 (having only the A155(138)T mutation).
An Escherichia coli strain transformed with the Oryza sativa EPSPS mutant II-encoding gene according to Example 2 was used as Experimental Group 3 (having the G111(96)A mutation and A155(138)T mutation).
An Escherichia coli strain transformed with a wild-type Oryza sativa EPSPS-encoding gene (SEQ ID NO: 14, encoding wild-type Oryza sativa EPSPS set forth in SEQ ID NO: 5) was used as a control group.
The glyphosate resistance of the Oryza sativa EPSPS mutant I-encoding gene and the encoded Oryza sativa EPSPS mutant I in Escherichia coli, and the glyphosate resistance of the Oryza sativa EPSPS mutant II-encoding gene and the encoded Oryza sativa EPSPS mutant II in Escherichia coli were verified by detecting the growth statuses of the transformed Escherichia coli in media containing different concentrations of glyphosate (0 mM, 1 mM, 2 mM, 20 mM) (media obtained by using M9 as a basal medium and then adding certain concentrations of antibiotics Spec (Spectinomycin), Gen (Gentamycin), and Amp (Ampicillin) and different concentrations of glyphosate).
Here, the Escherichia coli strain used was an double-knockout Escherichia coli strain (Escherichia coli strain DH5a from which an EPSPS gene and a C-P Lyase gene were knocked out, named EDCE, which may be prepared by a method with reference to Chinese Patent Application No. 2016103256926).
The detection was carried out by a method well known in the art, which was briefly described below. Gene encoding Oryza sativa EPSPS mutants was synthesized by a chemical synthesis method, wherein enzymatic digestion sites (Pacl and Sbfl) were introduced at both ends of the gene. The gene were enzymatically cleaved and then ligated in the presence of ligase to an expression vector (e.g., pADV5 vector having a structure as shown in FIG. 4) subjected to the same enzymatic digestion treatment, and then were transformed into the double-knockout Escherichia coli strain. After verification, positive clones were picked out and inoculated and grown in media containing glyphosate. The growth statuses were observed.

[3] = 1X dose glyphosate (1,060 g/ha), day 10 after spraying
[4] = 2X dose glyphosate (2,120 g/ha) on survivors of 1X, after another 10 days
[5] = 5X dose glyphosate (5,300 g/ha) on survivors of 2X, after additional 10 days
[6] = 20X dose glyphosate (21,200 g/ha) on survivors of 5X, after further 10 days
[7] = medium containing 1 mM glyphosate
[8] = medium containing 2 mM glyphosate
[9] = medium containing 20 mM glyphosate

Molecule | % ++&+++ (percentage of moderately and highly glyphosate resistant plants in total plants observed) [1, 3] [%] | plant number with resistance + (low glyphosate resistant) [1, 3] | plant number with resistance ++ (moderately glyphosate resistant) [1, 3] | plant number with resistance +++ (highly glyphosate resistant) [1, 3] | % ++&+++ (percentage of moderately and highly glyphosate resistant plants in total plants observed) [1, 4] [%] | plant number with resistance + (low glyphosate resistant) [1, 4] | plant number with resistance ++ (moderately glyphosate resistant) [1, 4] | plant number with resistance +++ (highly glyphosate resistant) [1, 4] | plant number with resistance − (non-glyphosate resistant, withered or dead) [1, 4] | % ++&+++ (percentage of moderately and highly glyphosate resistant plants in total plants observed) [1, 5] [%] | plant number with resistance + (low glyphosate resistant) [1, 5] | plant number with resistance ++ (moderately glyphosate resistant) [1, 5] | plant number with resistance +++ (highly glyphosate resistant) [1, 5] | plant number with resistance − (non-glyphosate resistant, withered or dead) [1, 5] | % ++&+++ (percentage of moderately and highly glyphosate resistant plants in total plants observed) [1, 6] [%] | plant number with resistance + (low glyphosate resistant) [1, 6] | plant number with resistance ++ (moderately glyphosate resistant) [1, 6] | plant number with resistance +++ (highly glyphosate resistant) [1, 6] | plant number with resistance − (non-glyphosate resistant, withered or dead) [1, 6] | growth status of transformed Escherichia coli [2, 7] | further results
B1 | 69.2 | 2 | 1 | 8 | 61.5 | 2 | 2 | 6 | 3 | 46.2 | 2 | 3 | 3 | 5 | 15.4 | 4 | 1 | 1 | 7 | showed bacterial plaques | growth status of transformed Escherichia coli [2, 8]: could not grow; growth status of transformed Escherichia coli [2, 9]: could not grow
B2 | 70.8 | 1 | 9 | 25 | 66.7 | 0 | 4 | 28 | 16 | 50.0 | 0 | 13 | 11 | 24 | 22.9 | 7 | 7 | 4 | 30 | showed bacterial plaques | glyphosate concentration of medium in which the E. coli strain was kept in a growing state ([2]; Example 5): up to 20 mM; growth status of transformed Escherichia coli [2, 8]: could grow normally; growth status of transformed Escherichia coli [2, 9]: could grow normally
